Test results: paper PMC3185441

Tests used:
Experiment in all cases: fluorescence protection assay
[1] = target: T1, alpha-fetoprotein (AFP) (UniProt P02771 19-609)
T1 sequence: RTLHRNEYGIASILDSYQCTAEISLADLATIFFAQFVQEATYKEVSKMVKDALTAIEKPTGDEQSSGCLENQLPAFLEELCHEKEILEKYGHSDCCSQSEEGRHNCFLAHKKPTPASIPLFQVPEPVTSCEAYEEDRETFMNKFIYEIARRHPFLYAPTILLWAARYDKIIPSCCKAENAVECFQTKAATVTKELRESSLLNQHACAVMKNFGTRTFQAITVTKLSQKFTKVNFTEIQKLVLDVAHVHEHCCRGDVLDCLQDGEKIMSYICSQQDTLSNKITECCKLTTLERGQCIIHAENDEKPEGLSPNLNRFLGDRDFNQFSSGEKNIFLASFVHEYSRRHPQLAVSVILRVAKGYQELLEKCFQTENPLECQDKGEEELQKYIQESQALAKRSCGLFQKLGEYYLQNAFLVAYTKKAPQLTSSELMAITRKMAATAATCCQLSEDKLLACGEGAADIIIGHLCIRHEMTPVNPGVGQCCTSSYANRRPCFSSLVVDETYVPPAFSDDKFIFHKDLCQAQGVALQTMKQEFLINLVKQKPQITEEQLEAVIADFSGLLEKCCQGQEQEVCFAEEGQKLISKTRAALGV

[2] = target: Carcinoembryonic antigen (CEA) (UniProt P06731 35-685)
Chain of Carcinoembryonic antigen (CEA) (P06731 35-685): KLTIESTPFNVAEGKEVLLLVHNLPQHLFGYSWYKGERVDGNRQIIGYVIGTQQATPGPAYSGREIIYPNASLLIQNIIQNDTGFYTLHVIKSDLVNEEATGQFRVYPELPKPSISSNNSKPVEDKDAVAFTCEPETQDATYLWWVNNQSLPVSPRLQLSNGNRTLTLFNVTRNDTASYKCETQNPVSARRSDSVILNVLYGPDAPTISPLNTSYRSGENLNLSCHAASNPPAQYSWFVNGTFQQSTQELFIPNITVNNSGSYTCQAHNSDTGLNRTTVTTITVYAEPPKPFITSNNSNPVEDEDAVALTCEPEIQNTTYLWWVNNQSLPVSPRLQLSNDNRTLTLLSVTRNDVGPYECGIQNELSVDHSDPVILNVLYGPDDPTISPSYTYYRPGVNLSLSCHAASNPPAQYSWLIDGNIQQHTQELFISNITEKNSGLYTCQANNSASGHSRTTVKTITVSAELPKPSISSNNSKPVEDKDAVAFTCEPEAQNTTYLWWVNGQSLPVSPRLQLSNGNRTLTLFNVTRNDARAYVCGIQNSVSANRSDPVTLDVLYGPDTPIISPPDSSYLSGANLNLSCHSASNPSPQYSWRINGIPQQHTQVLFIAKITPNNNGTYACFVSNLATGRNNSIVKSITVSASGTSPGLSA

[3] = target: Thrombin (UniProt P00734;P00734 328-363;364-622)

Measured: binding result

GCGCGGGGCACGTTTATCCGTCCCTCCTAGTGGCGTGCCCCGCGC (structured_DNA, FITC-modified T at Site 1 (position only in Fig 2A)) [IgE aptamer, FITC at Site 1]
no binding: all assays above
